Molecular target: hsp7f_yeast SSE1 (UniProt P32589)
Sequence (P32589 whole entry): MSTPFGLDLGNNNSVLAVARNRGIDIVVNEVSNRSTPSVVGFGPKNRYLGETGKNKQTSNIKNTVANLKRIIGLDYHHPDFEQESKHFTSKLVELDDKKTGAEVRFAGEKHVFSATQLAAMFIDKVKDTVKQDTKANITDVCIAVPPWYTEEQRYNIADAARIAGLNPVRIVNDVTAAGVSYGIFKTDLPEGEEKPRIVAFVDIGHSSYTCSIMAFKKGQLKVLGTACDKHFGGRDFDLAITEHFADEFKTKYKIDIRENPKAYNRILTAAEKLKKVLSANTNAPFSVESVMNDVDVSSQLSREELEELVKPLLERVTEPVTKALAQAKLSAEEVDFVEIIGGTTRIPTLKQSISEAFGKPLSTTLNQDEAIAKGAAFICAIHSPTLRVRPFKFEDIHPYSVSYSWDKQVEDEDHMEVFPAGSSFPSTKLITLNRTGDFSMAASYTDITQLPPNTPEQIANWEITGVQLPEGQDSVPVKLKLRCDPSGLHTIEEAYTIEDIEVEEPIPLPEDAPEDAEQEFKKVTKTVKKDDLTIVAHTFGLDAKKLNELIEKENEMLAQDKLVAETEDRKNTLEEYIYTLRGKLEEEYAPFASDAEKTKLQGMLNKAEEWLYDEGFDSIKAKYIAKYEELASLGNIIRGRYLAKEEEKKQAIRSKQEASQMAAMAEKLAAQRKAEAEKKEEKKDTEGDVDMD

Row | effect of a mutation on the interaction | Substance
1 | decreasing interaction | Heat shock protein SSA1 (Saccharomyces cerevisiae), P10591 A297E
2 | decreasing interaction | Heat shock protein SSA1 (Saccharomyces cerevisiae), P10591 Q31A
